Holding throughout (assay): fluorescence polarisation
For orientation: Polarisation of emitted light reports the rotation of a fluorescent probe.

Test [1] has as its target FITC-labelled C-terminal peptide of ACE2 (FITC-…-COO-) (human).
Test [2] addresses FITC-labelled ACE2 peptide with the predicted PTB binding motif (FITC-…-NH2) (human).
The target of test [3] is AP2 μ2 (human unless Table 5 states otherwise (cells not shown)).
The next test addresses T1, SHANK1 PDZ (human unless Table 5 states otherwise …, UniProt Q9Y566 663-757).
T1 sequence: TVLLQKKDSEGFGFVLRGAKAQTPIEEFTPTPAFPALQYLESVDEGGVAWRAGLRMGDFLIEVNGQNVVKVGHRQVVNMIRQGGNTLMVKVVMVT

The source of these data is publication doi:10.1101/2020.10.06.327742 (bioRxiv, 2020).

The star is where a group is joined. FITC = O=C1OC2(c3ccc(O)cc3Oc3cc(O)ccc32)c2ccc(NC(=S)*)cc21

What is called Kd is the concentration at which binding is half-saturated. For NHERF3 PDZ1 (domain or fragment), in test [1], the Kd was determined as 8 µM.

On to SNX17 FERM domain (domain or fragment), for which, in test [2], the Kd was 200 to 300 µM.

Usually Ki stands for the dissociation constant of the complex between target and ligand, obtained from inhibition or displacement. Consider “unphosphorylated ACE2 peptide (cytoplasmic tail region with the predicted AP2 μ2, NCK SH2 and ATG8 binding motifs)”, for which the inhibition constant Ki in test [3] amounted to 101 µM.

B1: FITC-labelled C-terminal peptide of ACE2 (FITC-QNTDDVQTSF-COO-) (peptide)
peptide: {FITC}-QNTDDVQTSF-OH
B1: the Kd with SHANK1 PDZ amounted to 14 µM.
